According to publication PMC7185628:

Molecular target: MERS-CoV spike protein (S) (MERS-CoV, UniProt K9N5Q8 18-1296)
Test: EMSA

Sequence of MERS-CoV spike protein (S) (K9N5Q8 18-1296): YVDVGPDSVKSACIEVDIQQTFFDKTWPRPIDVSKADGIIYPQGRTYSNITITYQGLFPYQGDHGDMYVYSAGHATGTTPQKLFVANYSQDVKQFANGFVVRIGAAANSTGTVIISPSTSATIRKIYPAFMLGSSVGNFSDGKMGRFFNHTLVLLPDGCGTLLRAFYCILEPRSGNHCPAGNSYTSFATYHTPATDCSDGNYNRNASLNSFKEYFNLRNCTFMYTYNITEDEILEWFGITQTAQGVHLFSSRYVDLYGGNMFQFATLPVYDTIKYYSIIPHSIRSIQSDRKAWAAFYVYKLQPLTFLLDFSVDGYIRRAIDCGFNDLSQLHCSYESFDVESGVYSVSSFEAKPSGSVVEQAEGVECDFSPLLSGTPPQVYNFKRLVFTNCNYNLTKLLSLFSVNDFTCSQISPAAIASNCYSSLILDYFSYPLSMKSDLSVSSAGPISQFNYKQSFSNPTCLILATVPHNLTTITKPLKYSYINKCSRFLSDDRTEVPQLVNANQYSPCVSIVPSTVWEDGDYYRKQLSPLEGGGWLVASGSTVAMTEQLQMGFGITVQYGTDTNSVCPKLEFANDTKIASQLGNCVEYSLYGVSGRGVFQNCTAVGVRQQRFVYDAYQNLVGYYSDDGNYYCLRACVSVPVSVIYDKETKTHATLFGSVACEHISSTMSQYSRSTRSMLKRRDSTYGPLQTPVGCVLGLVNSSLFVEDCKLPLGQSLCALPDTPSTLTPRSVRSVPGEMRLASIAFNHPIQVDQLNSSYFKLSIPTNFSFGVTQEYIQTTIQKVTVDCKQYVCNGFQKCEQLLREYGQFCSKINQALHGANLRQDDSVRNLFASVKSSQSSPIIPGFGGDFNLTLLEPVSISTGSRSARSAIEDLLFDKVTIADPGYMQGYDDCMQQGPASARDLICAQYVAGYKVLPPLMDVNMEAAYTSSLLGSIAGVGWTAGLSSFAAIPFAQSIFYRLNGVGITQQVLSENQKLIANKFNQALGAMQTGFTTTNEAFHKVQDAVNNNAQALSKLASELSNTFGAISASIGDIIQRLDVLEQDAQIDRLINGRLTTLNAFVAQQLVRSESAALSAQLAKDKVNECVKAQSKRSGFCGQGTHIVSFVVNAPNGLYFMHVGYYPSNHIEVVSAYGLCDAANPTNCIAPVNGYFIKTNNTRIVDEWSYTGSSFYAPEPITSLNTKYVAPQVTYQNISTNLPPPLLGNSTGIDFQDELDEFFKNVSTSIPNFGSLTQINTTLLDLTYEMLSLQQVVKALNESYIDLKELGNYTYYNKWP

B1: AIapt/FAM/SH-DNA 3WJ (MF-DNA) (structured_DNA)
DNA 1: GTGTGCATGGATAGCACGTAACGGTGTAGTAGATACGTGCGGGTAGGAAGAAAGGGAAATAGTTGTCCTGTTGTTGCCATGTGTATGTGGG
DNA 2: CCCACATACTTTGTTGATCC
DNA 3: GGATCAATCATGGCAA
modifications: 5' thiol on strand 3 (SH/3WJc)
- binding result: no binding
